Laboratory results taken from article PMC12311003, “Biochemical characterization of a novel purified lectin extracted from Pleurotus ostreatus mushroom for its antiviral activity” (Scientific Reports, 2025).
Values belong to the compound of their own block, whether it stands above or below them.

Columns and labels:
[1] = biological target: T1, HBV polymerase (Hepatitis B virus ayw/Japan/JYW796/1988, UniProt Q9QMI1); test: [3H]TTP incorporation, scintillation counting; assay type: biochemical
T1 construct: gene P

[2] = biological target: HCV NS3/NS4A protease (Hepatitis C virus (isolate BK), UniProt P26663); settings: NS4A/NS4B-derived fluorogenic peptide substrate, 30 min, 37 °C; used as comparator drug
[3] = biological target: CD81 (human (endogenous in PBMCs)) (UniProt P60033); test: flow cytometry on cells; 1 x 10^6 PBMCs incubated 2 h with 12.5 µM POL, then anti-CD81-FITC antibody at 4 °C for 30 min; binding taken from the fall in unbound CD81
[4] = biological target: scavenger receptor class B-type I (SR-B1) (UniProt Q8WTV0); test: AlphaScreen or HTRF
Sequence of scavenger receptor class B-type I (SR-B1) (Q8WTV0 whole entry): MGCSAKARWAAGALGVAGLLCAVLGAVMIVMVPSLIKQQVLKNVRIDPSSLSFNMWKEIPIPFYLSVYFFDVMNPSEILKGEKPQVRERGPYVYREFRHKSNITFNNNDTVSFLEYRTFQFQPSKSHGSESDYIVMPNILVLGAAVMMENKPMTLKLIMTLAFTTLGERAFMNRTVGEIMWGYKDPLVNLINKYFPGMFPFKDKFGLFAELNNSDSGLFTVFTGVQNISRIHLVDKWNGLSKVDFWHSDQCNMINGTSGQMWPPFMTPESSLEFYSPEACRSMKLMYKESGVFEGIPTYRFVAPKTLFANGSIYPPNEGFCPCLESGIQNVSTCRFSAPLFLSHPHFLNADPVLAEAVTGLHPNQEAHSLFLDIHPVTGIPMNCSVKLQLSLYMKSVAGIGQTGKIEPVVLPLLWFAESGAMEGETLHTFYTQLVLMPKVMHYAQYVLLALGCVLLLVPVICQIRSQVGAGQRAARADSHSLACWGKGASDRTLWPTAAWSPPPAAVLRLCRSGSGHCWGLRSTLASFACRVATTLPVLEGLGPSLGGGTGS

T1 sequence (Q9QMI1 whole entry): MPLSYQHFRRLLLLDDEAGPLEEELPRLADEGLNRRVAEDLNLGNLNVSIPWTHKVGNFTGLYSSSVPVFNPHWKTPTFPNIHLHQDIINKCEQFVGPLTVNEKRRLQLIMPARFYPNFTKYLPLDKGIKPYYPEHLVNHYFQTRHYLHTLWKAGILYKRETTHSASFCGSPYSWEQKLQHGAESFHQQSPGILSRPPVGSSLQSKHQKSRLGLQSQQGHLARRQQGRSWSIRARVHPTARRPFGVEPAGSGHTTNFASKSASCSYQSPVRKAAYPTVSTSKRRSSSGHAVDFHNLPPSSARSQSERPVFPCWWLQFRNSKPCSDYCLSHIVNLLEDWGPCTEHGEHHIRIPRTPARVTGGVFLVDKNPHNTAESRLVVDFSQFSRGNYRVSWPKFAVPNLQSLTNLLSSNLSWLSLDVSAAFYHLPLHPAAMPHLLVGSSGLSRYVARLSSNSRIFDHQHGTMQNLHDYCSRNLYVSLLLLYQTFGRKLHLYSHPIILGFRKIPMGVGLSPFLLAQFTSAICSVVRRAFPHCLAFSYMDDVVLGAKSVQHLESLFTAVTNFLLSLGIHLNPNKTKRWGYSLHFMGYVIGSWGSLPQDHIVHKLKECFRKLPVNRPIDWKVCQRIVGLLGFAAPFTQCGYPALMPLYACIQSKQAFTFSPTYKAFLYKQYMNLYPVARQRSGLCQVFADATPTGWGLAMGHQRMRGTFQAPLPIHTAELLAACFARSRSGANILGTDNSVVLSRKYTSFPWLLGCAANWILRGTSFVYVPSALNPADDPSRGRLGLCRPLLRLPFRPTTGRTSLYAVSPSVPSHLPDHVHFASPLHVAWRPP
Sequence of HCV NS3/NS4A protease (P26663 1027-1657): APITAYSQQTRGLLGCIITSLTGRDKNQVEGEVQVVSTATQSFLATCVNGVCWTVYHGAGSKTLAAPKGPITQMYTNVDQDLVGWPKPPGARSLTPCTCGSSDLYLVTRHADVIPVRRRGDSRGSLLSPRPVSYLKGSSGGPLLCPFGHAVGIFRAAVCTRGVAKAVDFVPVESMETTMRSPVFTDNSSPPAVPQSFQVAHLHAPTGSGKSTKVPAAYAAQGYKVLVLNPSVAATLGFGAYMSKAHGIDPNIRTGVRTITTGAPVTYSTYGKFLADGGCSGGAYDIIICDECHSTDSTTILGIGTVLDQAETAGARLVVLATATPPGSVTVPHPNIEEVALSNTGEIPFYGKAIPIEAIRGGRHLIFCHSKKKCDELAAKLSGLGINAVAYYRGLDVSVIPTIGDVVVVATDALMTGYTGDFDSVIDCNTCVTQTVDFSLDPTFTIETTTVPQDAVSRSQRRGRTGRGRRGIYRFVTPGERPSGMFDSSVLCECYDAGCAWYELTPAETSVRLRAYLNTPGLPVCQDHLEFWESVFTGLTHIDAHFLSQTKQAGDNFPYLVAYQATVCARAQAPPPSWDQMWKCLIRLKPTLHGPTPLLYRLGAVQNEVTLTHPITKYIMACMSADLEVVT
Sequence of HCV NS3/NS4A protease (P26663 1658-1711): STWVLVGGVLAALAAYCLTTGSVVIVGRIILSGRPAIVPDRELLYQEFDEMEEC
Sequence of CD81 (human (endogenous in PBMCs)) (P60033 whole entry): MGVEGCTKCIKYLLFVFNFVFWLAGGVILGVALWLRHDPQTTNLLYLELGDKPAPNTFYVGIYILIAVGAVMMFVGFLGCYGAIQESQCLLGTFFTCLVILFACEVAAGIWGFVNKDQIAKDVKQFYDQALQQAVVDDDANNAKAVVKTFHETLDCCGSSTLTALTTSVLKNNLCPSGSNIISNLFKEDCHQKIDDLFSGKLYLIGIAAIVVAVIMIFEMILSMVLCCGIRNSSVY

Compound: Nc1ccn([C@@H]2CS[C@H](CO)O2)c(=O)n1 [LAM, lamivudine]
IC50 [1]: 6.52 nM

Compound: CC(C)OC(=O)[C@H](C)N[P@](=O)(OC[C@H]1O[C@@H](n2ccc(=O)[nH]c2=O)[C@](C)(F)[C@@H]1O)Oc1ccccc1 [SOF, sofosbuvir]
IC50 [2]: 15.5 nM

percentage of binding to CD81 at 12.5 µM [3]: 58.8% | IC50 [4]: 10.1 nM | Kd [4]: 3.6 nM | Ki [4]: 3.03 nM
Compound: Pleurotus ostreatus lectin (POL) (natural protein)
